Reference: the nanobody polyreactivity screen of Harvey et al. (2022)

test: yeast display, Sf9 membrane polyspecificity reagent, FACS + sequencing; frameworks hold sequencing errors
Method in brief: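 In a synthetic yeast display library (Saccharomyces cerevisiae BJ5465), nanobody expression was induced with galactose for 36–48 hours. FACS gates were set low and high (top ~1%) using anti-HA fluorescence for expression and streptavidin fluorescence for binding of the Sf9 membrane reagent. Each polyreactivity label is drawn from the gate of origin.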

Sequence | polyreactivity (PSR sort gate)
QVQLVESGGGLVQAGGSLRLSCAASGSTFYAYAMGWYRQAPGKERELVAAINGSGGSTNYADSVKGRFTISRDNAKHTDYLQMNSQKPEDTAVYYCAADWSRRLYDYWGQGTQVTVSS | low polyreactivity
QVQLVESGGGLVQAGGSLRLSCAASGSTFYAYAMGWYRQAPGKERELVAAIRISGTSTYYADSVKGRFTISRDNAKNTVYLQMNSLKPEDSAVYYCNTLATYVAHNDYWGQGTQVTVSS | high polyreactivity
QVQLVESGGGLVQAGGSLRLSCAASGSTFYAYAMGWYRQAPGKERELVASITYSGVSTYYADSVKGRFTISRDNAKNTVYLQMNSLKPEDTAVYYCATDYSHITYSHYRWWYNEYEYWGQGTQVTVSS | low polyreactivity
QVQLVESGGGLVQAGGSLRLSCAASGSTFYAYAMGWYRQEPGKERELVAAINSVGSTYYADSVKGRFTISRDNAKNTVYLQMNSLKPEDTAVYYCARGVDYPTSQPPYFRHDYWGQGTQVTVSS | low polyreactivity
QVQLVESGGGLVQAGGSLRLSCAASGSTFYAYTMGWYRQAPGKERELVAAISSGGGTYYADSVKGRFTISRDNAKNTVYLQMNSLKPEDTAVYYCAADPVGYYDPSDYWGQGTQVTVSS | low polyreactivity
QVQLVESGGGLVQAGGSLRLSCAASGSTFYAYVMGWYRQAPGKERELVAAIRSSGGRTYYADSVKGRFTISRDNAKNTLYLQMNSLKPEDSAVYYCAKAIWATRQYLRFTDYDYWGQGTQVTVSS | high polyreactivity
QVQLVESGGGLVQAGGSLRLSCAASGSTFYCYVMGWYRQAPGKERALVAAISSGGGTYYADSVKGRFTISRDNAKNTVYLQMNSLKPEDTAVYYSAADASDGQSWYEDYEYDYWGQGTQVTVSS | low polyreactivity
QVQLVESGGGLVQAGGSLRLSCAASGSTFYDNAKGWYRPAPGKERELVAAISYSGASTYYADSVKGRFTISRDNAQNTVYLQMNSLKPEDTAVYYCSKTFYSLYWGQGTQVTVSS | low polyreactivity
QVQLVESGGGLVQAGGSLRLSCAASGSTFYDYAMGWYRQAPGKERELVASITTGGDSTYYADSVKGRFTISRDNAKNTVYLQMNSLKPEDTAVYYCNADWYYWISNYQGAPEMDYWGQGTQVTVSS | high polyreactivity
QVQLVESGGGLVQAGGSLRLSCAASGSTFYDYVMGWYRQAPGKERELVAVISSSGSTNYADSVKGRITISRDNAKNTVYLQMNSLKTEDTAVYYCAAEYTFDWLEFDYWGQGTQVTVSS | low polyreactivity
QVQLVESGGGLVQAGGSLRLSCAASGSTFYEYAMGWYRQAPGKERELVAAISSGGSTYYADSVKGRFTISRDNAKNTVYLQMNSLKPEDTAVYYCNADCQTYGGEYDYWGQGTQVTVSS | low polyreactivity
QVQLVESGGGLVQAGGSLRLSCAASGSTFYEYAMGWYRQAPGKERELVAAISWSDVDTYYADSVKGRFTISRDNAKNTVYLQMNSLKPEDTAVYYCAAEWYHPYTQEMDYWGQGTQVTVSS | high polyreactivity
QVQLVESGGGLVQAGGSLRLSCAASGSTFYFNAMGWYRPAPGKERELVAAIDWSGGSTYYADSVKGRFTISRDNAKNTVYLQMNSLKPEDTAVYYCAADISVGRYGDMDYYYKVDYWGQGTQVTVSS | low polyreactivity
QVQLVESGGGLVQAGGSLRLSCAASGSTFYFNAMGWYRQAPGKEREFVAGIRYSGSSTYYADSVKGRFTISRDNAKNTVYLQMNSLKPEDTAVYYCAAERWCYTVRGYGYWGHGTQVTVSS | high polyreactivity
QVQLVESGGGLVQAGGSLRLSCAASGSTFYFNAMGWYRQAPGKERELVAAIDWSGGSTYYADSVKGRFTISRDNAKNTVYLQMNSLKPEDTAVYYCNADNYEWGNNYGYWGQGTQVTVSS | low polyreactivity
QVQLVESGGGLVQAGGSLRLSCAASGSTFYFNAMGWYRQAPGKERELVAGIRYSGSSTYYADSVKGRFTISRDNAKNTVYLQMNSLKPEDTAVYYCAARYSVYPRVSKYSYRFNYWGQGTQVTVSS | high polyreactivity
QVQLVESGGGLVQAGGSLRLSCAASGSTFYFNAMGWYRQAPGKERELVAGITYSGDSTYYADSVKGRFTISRDNAKNTVYLQMNSLKPEDTAVYYCAADVDYDLDGDYWGQGTQVTVSS | low polyreactivity
